According to patent US8652790B2, “Conformational entropy in molecular recognition” (The Trustees of the University of Pennsylvania, priority 2007, dated 2014):

Experiments:
calmodulin [1] = target: T1, calmodulin (Homo sapiens, UniProt P0DP23); assay: Uncalibrated estimate of conformational entropy of binding from methyl group dynamics of CaM and target domain; parameters: made in house; details: for Δ O^2axis Target: O^2axis of 0.101 assumed for the free target domain; for Δ O^2axis CaM: free CaM is the reference state; for ΔSfast^conf: harmonic oscillator plus fast minor rotamer states; for ΔStotal^conf: includes classical term from slow-exchange minor cross peaks; for Normalized Δ O^2axis: normalized to number of amino acids in calmodulin (148) and target domain
Description: Using deuterium NMR relaxation methods, fast motion of the methyl-bearing side-chains of the target domains in the six CaM complexes were examined. Muhandiram, D. R. et al., Measurement of H-2 T-1 and T-1p relaxation-times in uniformly C-13-Labeled and fractionally H-2-labeled proteins in solution. J. Am. Chem. Soc. 117, 11536-11544 (1995).
Initially estimates of the conformational entropy of the target domains to the free energy of binding to CaM was obtained using the simple harmonic oscillator model. Li, Z., Raychaudhuri, S., & Wand, A. J., Insights into the local residual entropy of proteins provided by NMR relaxation. Prot. Sci. 5, 2647-2650 (1996). It is assumed that the dynamics of the free unstructured target domain are uniform and correspond to an O^2axis of 0.1. […] This was estimated using a previously described model. Lee, A. L. et al., Temperature dependence of the internal dynamics of a calmodulin peptide complex. Biochemistry 41, 13814-13825 (2002). […] Such heterogeneity would correspond to conformational entropy contributed by states that are not averaged on the NMR chemical shift timescale.
To compare dynamics in the various complexes, we employ a normalization procedure to account for variation in the number of methyl sites in CaM whose motion could be quantified and to account for the fact that, although fully resolved, the number of residues in the target domains ranges between 20 and 26. A simple average was employed. The apparent change in conformational entropy was then calculated as above. To complete the solution of equation (5), the binding entropies obtained by isothermal titration calorimetry were used and calculated the change in solvent entropy using the known structures of free CaM and the five complexes. Kainosho, M. et al., Optimal isotope labelling for NMR protein structure determinations. Nature 440, 52-57 (2006); Aoyagi, M et al., Structural basis for endothelial nitric oxide synthase binding to calmodulin. The EMBO journal 22, 766-775 (2003); Meador, W. E., Means, A. R., & Quiocho, F. A., Target enzyme recognition by calmodulin: 2.4 A structure of a calmodulin-peptide complex. […] Nat. Struct. Biol. 6, 819-824 (1999); Valentine, K. G. et al., The crystal structure and internal dynamics of calmodulin complexed with the calmodulin binding domain of neuronal nitric oxide synthase. Biochemistry, submitted (2007). The empirically determined relationship between changes in accessible surface area and the entropy of solvent is employed. Hilser, V. J. et al., A statistical thermodynamic model of the protein ensemble. Chem. Rev. 106, 1545-1558 (2006). The change in solvent entropy by assuming an extended fully solvated structure for the dissociated domains (see Methods) was calculated. […] Gaboriaud, C. et al., Hydrophobic cluster analysis: an efficient new way to compare and analyse amino acid sequences. FEBS letters 224, 149-155 (1987). […] The surface area of a sphere of equivalent volume of the side-chains in the putative hydrophobic cluster was used as a basis for the solvent entropy calculation. A further correction for the reduction in conformational entropy of the compact free CaMKKα(p) target domain was also applied (see Methods). […] Marlow, M. S. & Wand, A. J., Conformational dynamics of calmodulin in complex with the calmodulin-dependent kinase kinase alpha calmodulin-binding domain. Biochemistry 45, 8732-8741 (2006).

calmodulin [2] = target: T1, calmodulin; assay: Change in conformational entropy of calmodulin on binding a target domain, estimated from methyl O^2axis (harmonic oscillator model); details: 308 K; for TSconf: absolute conformational entropy of calmodulin in complex; for −TΔSconf: calmodulin upon binding target domain, free CaM reference state; for TSrotamer(fast) / TSrotamer(slow): classical entropy; for TSrotamer(fast): fast rotamer interconversion; for TSrotamer(slow): slowly interconverting conformers; for TSharm: motion within a rotameric well, simple harmonic oscillator
Description: Guided by Karplus and co-workers (see Karplus M et al. (1987)), the present approach connects the change in internal protein dynamics to the conformational entropy, describing the protein as a disjoint multidimensional harmonic well: Sconf=ΣpiS^hi−kBΣpilnpi (2) where S^hi represents the entropy manifested by fast intra-well motion and the second term corresponds to the classical conformational entropy arising from the i=1 . . . N distinct conformations. Here S^hi is obtained from interpretation of local order parameters, which is model-dependent. The present approach finds its modern roots in the work described in Akke, M., Bruschweiler, R. & Palmer, A. G. NMR order parameters and free-energy—an analytical approach and its application to cooperative Ca^2+ binding by calbindin-D(9k). J. Am. Chem. Soc. 115, 9832-9833 (1993), in which a specific motional model (potential energy function) is used to provide a parametric relationship between what is measured, the squared generalized order parameter, and what is sought, a thermodynamic quantity such as the entropy.
A simple harmonic oscillator treatment was selected to make this connection. Li, Z., Raychaudhuri, S. & Wand, A. J. Insights into the local residual entropy of proteins provided by NMR relaxation. Prot. Sci. 5, 2647-2650 (1996). It is important to note that the absolute entropies obtained in this way are very dependent on the details of the potential energy function but that differences in entropy calculated from changes in O^2 are fairly insensitive to the model used. Li, Z, et al. (1996); Lee, A. L. et al. Temperature dependence of the internal dynamics of a calmodulin peptide complex. Biochemistry 41, 13814-13825 (2002). As the reference state for obtaining ΔSconf we use calcium-saturated calmodulin. The second term of equation (2) represents classical entropy arising from the local heterogeneity of side-chain conformers. This can be manifested on a range of timescales. […] This was interpreted as classical entropy with the population of each state (pi) estimated from the intensity of cross peaks. […] Lee, A. L. et al. (2002). This also represents conformational entropy and was estimated using a previously described model. Id.
The change in conformational entropy of calmodulin on binding a target domain was estimated as the sum of three terms: ΔSconf=ΔSharm+ΔSrotamer(fast)+ΔSrotamer(slow). Sharm was obtained from O^2axis parameters using a harmonic oscillator model. Li, Z., Raychaudhuri, S. & Wand, A. J. Insights into the local residual entropy of proteins provided by NMR relaxation. Prot. Sci. 5, 2647-2650 (1996). Free calcium-saturated calmodulin was used as the reference state in site-to-site comparisons. To normalize the unequal number of resolved sites among the complexes, the average methyl order parameter within a complex was assigned to each unresolved site of that complex. A classical entropy term ΔSrotamer(fast) was added to represent minor conformers that are sampled owing to fast rotameric interconversion. Lee, A. L. et al. Temperature dependence of the internal dynamics of a calmodulin peptide complex. Biochemistry 41, 13814-13825 (2002). For the small number of sites having multiple conformations in slow exchange on the NMR chemical shift timescale, an additional classical entropy contribution ΔSrotamer(slow) was calculated on the basis of measured intensities. Populations of the three motional classes were obtained using nonlinear regression of a three gaussian model to the observed order parameter distributions. […]

Row | Substance | Δ O^2axis Target (calmodulin [1]) | Δ O^2axis CaM (calmodulin [1]) | ΔSfast^conf (calmodulin [1]) [kcal/mol] | ΔStotal^conf (calmodulin [1]) [kcal/mol] | Normalized Δ O^2axis (calmodulin [1]) | TSconf (calmodulin [2]) [kcal/mol] | −TΔSconf (calmodulin [2]) | TSrotamer(fast) (calmodulin [2]) [kcal/mol] | TSrotamer(slow) (calmodulin [2]) [kcal/mol] | TSharm (calmodulin [2]) [kcal/mol]
1 | AKSKWKQAFNATAVVRHMRKLQ (listed as Homo sapiens) [CaMKI(p)] | 0.555 | 0.107 | 60.2916 | 63.1334 | 28.046 | 168 | +66.0 kJ/mol | 22.6 | 3.59 | 141.8
2 | RKKTFKEVANAVKISASLMG [eNOS(p)] | 0.567 | 0.081 | 50.278 | 53.5045 | 23.328 | 172.8 | +46.1 kJ/mol | 24.21 | 3.97 | 144.6

Further lines, results first:

Row | Δ O^2axis Target (calmodulin [1]) | Δ O^2axis CaM (calmodulin [1]) | ΔSfast^conf (calmodulin [1]) [kcal/mol] | ΔStotal^conf (calmodulin [1]) [kcal/mol] | Normalized Δ O^2axis (calmodulin [1]) | TSconf (calmodulin [2]) [kcal/mol] | −TΔSconf (calmodulin [2]) | TSrotamer(fast) (calmodulin [2]) [kcal/mol] | TSrotamer(slow) (calmodulin [2]) [kcal/mol] | TSharm (calmodulin [2]) [kcal/mol] | Substance
3 | 0.329 | 0.096 | 48.2921 | 49.7978 | 22.632 | 168.6 | +63.5 kJ/mol | 23.5 | 2.25 | 142.9 | (COOH-FPNGFSRKRLMSKVLIVTTWSPLL [CaMKKα(p)]
4 | 0.528 | 0.049 | 41.5545 | 46.7409 | 19.396 | 180 | +15.9 kJ/mol | 26.31 | 5.93 | 147.8 | KRRAIGFKKLAEAVKFSAKLMGQ [nNOS(p)]
5 | – | – | – | – | – | 177.9 | +24.9 kJ/mol | 25.96 | 3.56 | 148.3 | QTEKMWQRLKGILRSLVKQ [PDE(p)]
